{
  "source": "patent US9732120B2",
  "about": "“Self-assembled peptide nanostructures by exploiting conformational change, biosensor using the same and detection method of biomolecules using the same” (INDUSTRY-ACADEMIC COOPERATION FOUNDATION, YONSEI UNIVERSITY, priority 2014, dated 2017)",
  "type_in_all_cases": "physicochemical",
  "key": {"[1]": {"assay": "Circular dichroism (CD) spectroscopy of the amphiphilic peptide depending on ionic strength and pH", "conditions": "for [θ]222/[θ]208 (degree of α-helix stabilization): 4° C., 1 μM peptide", "experimental": "Circular dichroism (CD) spectroscopic analysis was performed as follows in order to investigate the dependence of the conformation of the amphiphilic peptide prepared in Preparation Example on ionic strength.\nCD spectra were recorded using the Chirascan circular dichroism spectrometer equipped with a Peltier thermostat. The spectra were recorded between 260 nm and 190 nm using a 2-mm path cuvette. 10 scans were averaged. Also, molar ellipticity per amino acid residue was calculated. The peptide concentration was 1 μM unless specified otherwise and the sample solution incubated at least for a day before the measurement.\nIn the graph, ∘ indicates the peptide dissolved in water, and • indicates the peptide dissolved in 150 mM KF. In Test Example 1, the measurement of the samples was measured at 4° C."}, "[2]": {"assay": "Fluorescence spectroscopy of the amphiphilic peptide in water or 150 mM KF (pyrene excimer)", "conditions": "0.25-20 μM peptide", "experimental": "The amphiphilic peptide prepared in Preparation Example was subjected to fluorescence spectroscopic measurement after dissolving in water or a 150 mM KF solution. Details are as follows.\nFluorescence spectra were measured using the LS55 fluorescence spectrometer (PerkinElmer). Pyrene was excited at 341 nm and the emission spectra were recorded in the range of 360-550 nm. The solid (-) curve indicates the amphiphilic peptide dissolved in 150 mM KF and the dotted ( . . . ) curve indicates the amphiphilic peptide dissolved in water.\nAlso, emission spectra were measured after dissolving 0.25-20 μM of the amphiphilic peptide prepared in Preparation Example in water (a) or a KF solution (b)."}, "[3]": {"assay": "Atomic force microscopy (AFM) of the amphiphilic peptide", "experimental": "The amphiphilic peptide prepared in Preparation Example was subjected to atomic force microscopic (AFM) measurement. Atomic force microscopic scanning was made at 1.2-1.5 V with 0.5 Hz. The result is shown in FIGS. 15a-15b and FIGS. 16a-16b.\nFIGS. 15a and 15b show atomic force microscopic (AFM) images of 2.5 μM of the amphiphilic peptide dissolved in water. FIG. 15a is a height image and FIG. 15b is a phase image.\nFIGS. 16a and 16b show atomic force microscopic (AFM) images of 1 μM of the amphiphilic peptide dissolved in a 150 mM KF solution. FIG. 16a is a height image and FIG. 16b is a phase image."}},
  "note": "No end group written: not given here. *: point of attachment. Butanoyl(4-pyren-1-yl) = O=C(CCCc1ccc2ccc3cccc4ccc1c2c34)*",
  "data": [
    {"substance": "amphiphilic peptide prepared in Preparation Example: hairpin-shaped amphiphilic peptide derived from HIV-1 rev protein (Rev12-64) with a pyrene group bound to the N-terminal via pyrenebutyric acid ({Butanoyl(4-pyren-1-yl)}-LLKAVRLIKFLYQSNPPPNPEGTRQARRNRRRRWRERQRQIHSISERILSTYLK)", "values": [
      {"measurement": "[θ]222/[θ]208 (degree of α-helix stabilization)", "setting": "[1]; 150 mM KF (increased ionic strength)", "value": 0.71},
      {"measurement": "solubility depending on pH", "setting": "[1]; CD analysis, FIG. 12", "value": "solubility decreases gradually as the pH increases"},
      {"measurement": "[θ]222/[θ]208 (degree of α-helix stabilization)", "setting": "[1]; in water", "value": 0.31},
      {"measurement": "excimer peak of pyrene (self-assembly)", "setting": "[2]; dissolved in pure water", "value": "no excimer peak of pyrene was observed"},
      {"measurement": "excimer peak of pyrene (self-assembly)", "setting": "[2]; ionic strength 150 mM (KF)", "value": "the excimer peak of pyrene was observed"},
      {"measurement": "particle diameter of globular nanostructures", "setting": "[3]; 1 μM peptide in 150 mM KF, AFM", "value": "20-50 nm"},
      {"measurement": "state of the peptide by AFM", "setting": "[3]; 2.5 μM peptide in water", "value": "exists mostly in monomer form"}
    ]}
  ]
}
